One block for each binder: values may come before it.
Target: BTN3A expressed at the cell surface (human), O00481
Experiment: cell-based or functional assay

BTN3A expressed at the cell surface (human), O00481, sequence (O00481 30-513): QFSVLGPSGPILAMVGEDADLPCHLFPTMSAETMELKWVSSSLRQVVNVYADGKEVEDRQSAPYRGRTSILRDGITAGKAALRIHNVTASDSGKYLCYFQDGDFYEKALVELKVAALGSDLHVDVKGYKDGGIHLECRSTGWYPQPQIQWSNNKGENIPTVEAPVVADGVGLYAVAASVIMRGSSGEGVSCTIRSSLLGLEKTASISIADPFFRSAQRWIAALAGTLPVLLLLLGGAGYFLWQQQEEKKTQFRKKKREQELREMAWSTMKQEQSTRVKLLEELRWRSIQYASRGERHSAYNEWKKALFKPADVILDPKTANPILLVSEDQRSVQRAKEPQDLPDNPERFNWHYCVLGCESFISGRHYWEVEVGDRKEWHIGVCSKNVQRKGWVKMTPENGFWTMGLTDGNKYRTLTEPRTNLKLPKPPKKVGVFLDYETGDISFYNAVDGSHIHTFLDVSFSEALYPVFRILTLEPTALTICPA

- Jurkat-Vy9Vo2 TCR MOP activation at 0.5 nM (fold-change to medium): 0.9
- Jurkat-Vy9Vo2 TCR MOP activation at 5 nM (fold-change to medium): 1.1
B1: bsAb034 (bispecific antibody, not shown: small tags and cut ends; a dimerising Fc or GST)
heavy (part 1 of 2): QVQLVQSGVEVKKPGASVKVSCKASGYTFTNYYMYWVRQAPGQGLEWMGGINPSNGGTNFNEKFKNRVTLTTDSSTTTAYMELKSLQFDDTAVYYCARRDYRFDMGFDYWGQGTTVTVSS
heavy (part 2 of 2): GGGGSGGGGSGGGGSGGGGSQVQLVQSGAEVKKPGASVKLSCKASGYIFTRYYMYWVKQRPGQGLEWIGEINPNNGGTKFNEKFKNRATLTVDKSISTAYMELSRLRSDDTAVYYCSREDDYDGTPFAMDYWGQGTLVTVSSGGGGSGGGGSGGGGSGGGGSDIQMTQSPSSLSASVGDRVTITCHASQNINVWLSWYQQKPGKAPKLLIYKASNLHTGVPSRFTGSGSGTDFTFTISSLQPEDIATYYCQQGQTYPYTFGQGTKLEIK
heavy: B1 heavy (part 2 of 2)
light: EIVLTQSPATLSLSPGERATLSCRASKGVSTSGYSYLHWYQQKPGQAPRLLIYLASYLESGVPARFSGSGSGTDFTLTISSLEPEDFAVYYCQHSRDLPLTFGGGTKVEIKRTVAAPSVFIFPPSDEQLKSGTASVVCLLNNFYPREAKVQWKVDNALQSGNSQESVTEQDSKDSTYSLSSTLTLSKADYEKHKVYACEVTHQGLSSPVTKSFNRGEC

- Jurkat-Vy9Vo2 TCR MOP activation at 0.5 nM (fold-change to medium): 1.2
- Jurkat-Vy9Vo2 TCR MOP activation at 5 nM (fold-change to medium): 1.7
B2: bsAb037 (bispecific antibody, not shown: small tags and cut ends; a dimerising Fc or GST)
heavy 1: B1 heavy (part 1 of 2)
heavy 2: DIQMTQSPSSLSASVGDRVTITCHASQNINVWLSWYQQKPGKAPKLLIYKASNLHTGVPSRFTGSGSGTDFTFTISSLQPEDIATYYCQQGQTYPYTFGQGTKLEIKGGGGSGGGGSGGGGSGGGGSQVQLVQSGAEVKKPGASVKLSCKASGYIFTRYYMYWVKQRPGQGLEWIGEINPNNGGTKFNEKFKNRATLTVDKSISTAYMELSRLRSDDTAVYYCSREDDYDGTPFAMDYWGQGTLVTVSSGGGGSGGGGSGGGGSGGGGS
light: EIVLTQSPATLSLSPGERATLSCRASKGVSTSGYSYLHWYQQKPGQAPRLLIYLASYLESGVPARFSGSGSGTDFTLTISSLEPEDFAVYYCQHSRDLPLTFGGGTKVEIKRTVAAPSVFIFPPSDEQLKSGTASVVCLLNNFYPREAKVQWKVDNALQSGNSQESVTEQDSKDSTYSLSSTLTLSKADYEKHKVYACEVTHQGLSSPVTKSFNRGECGGGGSGGGGSGGGGSGGGGSQVQLVQSGAEVKKPGASVKLSCKASGYIFTRYYMYWVKQRPGQGLEWIGEINPNNGGTKFNEKFKNRATLTVDKSISTAYMELSRLRSDDTAVYYCSREDDYDGTPFAMDYWGQGTLVTVSSGGGGSGGGGSGGGGSGGGGSDIQMTQSPSSLSASVGDRVTITCHASQNINVWLSWYQQKPGKAPKLLIYKASNLHTGVPSRFTGSGSGTDFTFTISSLQPEDIATYYCQQGQTYPYTFGQGTKLEIK

— patent US20260265379A1
